From doi:10.1101/2025.11.23.689978
Several values for one entry are separate records, joined by “and”; a condition that tells them apart may be missing. Equal values may be shown once.

Tests used:
[1] = molecular target: AimC_(ϕ106), purified (phage ϕ106 (of Bacillus inaquosorum strain KCTC 13429)); assay: SEC-MALS
[2] = molecular target: AimC_(BMbtp14), purified (phage BMBtp14 (B. cereus group phage)); assay: SEC-MALS

| Substance | stoichiometry N [1] | stoichiometry N [2] |
| --- | --- | --- |
| AimC_(ϕ106), purified (natural protein) | 2 | – |
| AimC_(BMbtp14), purified (natural protein) | – | 2 and 4 |
